Measurements as given in patent US20240116985A1 (published 2024).
Starred links: 1 amine or outer side, 2 acyl side, 3 side chain; linkers in the order of their positions; H or OH if unused. Positions of bridges follow the written chain, without caps; N, C: chain ends. Non-standard residues stand in square brackets, D forms with d. Primed or numbered codes have the meaning given here. B5(5) = 2,2-bis(4-pentenyl)glycine, 2-amino-2-(pent-4-en-1-yl)hept-6-enoic acid (stitching residue), C=CCCCC(CCCC=C)(N[*:1])C(=O)[*:2]; B5(6) = 2-amino-2-(pent-4-en-1-yl)hept-6-enoic acid (bis(4-pentenyl)glycine), stitching residue, C=CCCCC(CCCC=C)(N[*:1])C(=O)[*:2]; TfeGA = (S)-2-amino-3-((carboxymethyl)(2,2,2-trifluoroethyl)amino)propanoic acid, O=C([C@H](CN(CC(=O)[*:3])CC(F)(F)F)N[*:1])[*:2]; Bta = N[C@@H](Cc1csc2ccccc12)C(=O)O; αAllylPro = C=CC[C@@]1(C(=O)O)CCCN1; tBuAla = CC(C)(C)C[C@H](N)C(=O)O; S8 = C=CCCCCCC[C@](C)(N)C(=O)O

T1: full-length beta-Catenin (Uniprot ID P35222) (Homo sapiens (Human), UniProt P35222 1-781)
T1 construct: also called bCat; B-Catenin
T1 sequence: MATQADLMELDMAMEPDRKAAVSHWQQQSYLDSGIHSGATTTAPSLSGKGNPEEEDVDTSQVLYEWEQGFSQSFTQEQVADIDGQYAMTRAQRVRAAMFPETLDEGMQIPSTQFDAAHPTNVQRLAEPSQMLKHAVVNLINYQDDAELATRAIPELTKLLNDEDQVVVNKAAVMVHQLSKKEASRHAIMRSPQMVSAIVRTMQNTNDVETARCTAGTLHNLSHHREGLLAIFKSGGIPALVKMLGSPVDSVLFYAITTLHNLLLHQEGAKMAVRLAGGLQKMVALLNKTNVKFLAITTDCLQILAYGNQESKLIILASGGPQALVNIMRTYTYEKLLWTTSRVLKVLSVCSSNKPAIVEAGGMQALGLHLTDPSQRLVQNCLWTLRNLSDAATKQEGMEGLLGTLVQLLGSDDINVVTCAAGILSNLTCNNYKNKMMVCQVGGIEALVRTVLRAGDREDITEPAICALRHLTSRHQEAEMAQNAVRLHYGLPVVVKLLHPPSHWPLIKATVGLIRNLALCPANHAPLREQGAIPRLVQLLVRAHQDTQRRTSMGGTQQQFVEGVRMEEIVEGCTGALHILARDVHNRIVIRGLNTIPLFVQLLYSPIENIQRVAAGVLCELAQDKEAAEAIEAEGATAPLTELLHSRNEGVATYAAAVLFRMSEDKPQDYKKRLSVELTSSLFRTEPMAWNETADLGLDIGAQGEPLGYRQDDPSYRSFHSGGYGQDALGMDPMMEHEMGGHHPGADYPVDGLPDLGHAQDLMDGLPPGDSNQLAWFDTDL

T2: B-cat-Halo (NanoBRET construct expressed in HEK293 cells) (UniProt P35222 1-781)
T2 sequence (looked up): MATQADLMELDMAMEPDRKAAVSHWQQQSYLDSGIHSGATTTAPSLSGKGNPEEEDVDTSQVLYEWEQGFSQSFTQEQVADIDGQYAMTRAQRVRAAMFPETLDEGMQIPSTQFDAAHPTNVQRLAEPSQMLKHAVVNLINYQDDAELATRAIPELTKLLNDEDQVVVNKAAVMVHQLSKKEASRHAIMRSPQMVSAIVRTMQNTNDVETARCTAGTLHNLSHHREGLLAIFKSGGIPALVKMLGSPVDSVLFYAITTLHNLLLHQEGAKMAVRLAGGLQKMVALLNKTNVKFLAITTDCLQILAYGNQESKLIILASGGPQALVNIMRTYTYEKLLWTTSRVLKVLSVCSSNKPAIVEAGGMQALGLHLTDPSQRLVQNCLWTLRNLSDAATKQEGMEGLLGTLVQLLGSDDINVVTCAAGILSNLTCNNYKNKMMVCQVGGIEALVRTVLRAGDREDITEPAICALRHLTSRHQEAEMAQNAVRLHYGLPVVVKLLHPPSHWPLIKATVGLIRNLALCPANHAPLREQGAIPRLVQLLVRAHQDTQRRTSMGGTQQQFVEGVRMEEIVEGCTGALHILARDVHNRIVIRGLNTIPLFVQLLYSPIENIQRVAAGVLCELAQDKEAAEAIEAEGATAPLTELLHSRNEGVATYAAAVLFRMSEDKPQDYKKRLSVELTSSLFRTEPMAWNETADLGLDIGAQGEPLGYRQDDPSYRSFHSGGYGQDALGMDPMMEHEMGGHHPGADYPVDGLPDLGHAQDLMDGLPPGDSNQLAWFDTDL

T3: beta-catenin in DLD1 TCF/LEF luciferase reporter cells (UniProt P35222 1-781)
T3 sequence (looked up): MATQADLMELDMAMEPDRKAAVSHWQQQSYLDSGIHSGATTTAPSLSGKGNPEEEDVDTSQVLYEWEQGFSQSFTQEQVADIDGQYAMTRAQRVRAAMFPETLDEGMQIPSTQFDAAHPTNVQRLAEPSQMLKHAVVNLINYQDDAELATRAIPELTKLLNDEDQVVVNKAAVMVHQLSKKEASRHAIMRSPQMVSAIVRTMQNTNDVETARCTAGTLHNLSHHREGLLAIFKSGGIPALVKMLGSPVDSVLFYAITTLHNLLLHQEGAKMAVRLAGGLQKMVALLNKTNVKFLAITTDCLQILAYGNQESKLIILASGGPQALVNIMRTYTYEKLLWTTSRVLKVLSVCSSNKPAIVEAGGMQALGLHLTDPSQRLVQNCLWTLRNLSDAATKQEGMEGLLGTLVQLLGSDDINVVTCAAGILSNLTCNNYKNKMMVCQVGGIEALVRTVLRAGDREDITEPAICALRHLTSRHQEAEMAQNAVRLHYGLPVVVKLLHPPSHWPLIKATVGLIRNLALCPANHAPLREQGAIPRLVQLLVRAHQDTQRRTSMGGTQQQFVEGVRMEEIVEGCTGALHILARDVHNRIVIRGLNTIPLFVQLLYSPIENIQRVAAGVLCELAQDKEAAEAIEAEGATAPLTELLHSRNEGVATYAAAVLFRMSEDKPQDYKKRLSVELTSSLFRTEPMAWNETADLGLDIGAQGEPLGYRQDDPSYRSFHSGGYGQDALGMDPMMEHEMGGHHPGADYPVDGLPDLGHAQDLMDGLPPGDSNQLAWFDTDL

T4: B-cat-Halo (beta-catenin HaloTag NanoBRET construct expressed in HEK293 cells) (UniProt P35222 1-781)
T4 sequence (looked up): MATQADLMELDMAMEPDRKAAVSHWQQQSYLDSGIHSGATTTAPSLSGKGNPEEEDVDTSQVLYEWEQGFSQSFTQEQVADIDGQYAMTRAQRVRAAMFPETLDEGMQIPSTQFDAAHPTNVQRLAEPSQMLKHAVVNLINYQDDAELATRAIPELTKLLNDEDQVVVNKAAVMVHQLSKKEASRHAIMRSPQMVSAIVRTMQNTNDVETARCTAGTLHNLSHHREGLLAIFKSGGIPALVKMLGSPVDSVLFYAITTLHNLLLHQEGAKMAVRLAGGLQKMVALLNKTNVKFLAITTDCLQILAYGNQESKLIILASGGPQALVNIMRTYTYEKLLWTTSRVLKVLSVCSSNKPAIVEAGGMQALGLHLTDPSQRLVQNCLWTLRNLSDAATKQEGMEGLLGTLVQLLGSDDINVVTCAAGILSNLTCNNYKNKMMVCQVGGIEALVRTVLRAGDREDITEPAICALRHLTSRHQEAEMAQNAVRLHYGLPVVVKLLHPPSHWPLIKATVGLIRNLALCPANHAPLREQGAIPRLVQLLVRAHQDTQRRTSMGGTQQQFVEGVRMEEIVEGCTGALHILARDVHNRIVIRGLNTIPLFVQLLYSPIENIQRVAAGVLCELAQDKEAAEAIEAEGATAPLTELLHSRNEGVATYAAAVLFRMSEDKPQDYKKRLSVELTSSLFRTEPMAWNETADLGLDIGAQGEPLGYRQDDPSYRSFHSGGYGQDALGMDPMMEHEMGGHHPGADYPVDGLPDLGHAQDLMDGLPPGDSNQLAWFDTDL


Legend:
[1] = biological target: T1, full-length beta-Catenin (Uniprot ID …); assay: FP competition: full-length beta-catenin 10 nM + 5FAM-TCF4(10-53) 10 nM
Method: The plate was incubated protected from light for 60 minutes at 20° C. prior to read. Reads were performed on a CLARIOstar plate reader (BMG Labtech) in duplicate, and data were fitted to a 1:1 binding model with hill slope using an in-house script. All provided concentrations are final concentrations.

[2] = biological target: T2, B-cat-Halo (NanoBRET construct …); assay: cell-based or functional assay
[3] = biological target: T3, beta-catenin in DLD1 TCF/LEF luciferase …; assay: cell-based or functional assay
[4] = biological target: T4, B-cat-Halo (beta-catenin HaloTag …); assay: cell-based or functional assay

| Binder | IC50 [1] | NanoBRET Abs IC50 [2] | DLD1 4% Abs IC50 [3] | NanoBRET Abs IC50 [4] |
| --- | --- | --- | --- | --- |
| Ac-[αAllylPro]DL[B5(6)]DEAAFQ[S8]F[Bta]Q-NH2 (staple 1-4, 4-11, Stapled peptide composition) [I-505] | 23 nM | 4.9 µM | 9.4 µM |  |
| Ac-[αAllylPro]D[tBuAla][B5(5)]D[TfeGA]AAFN[S8]F[Bta]Q-NH2 (staple 1-4, 4-11) [I-703] |  |  |  | 11.9 µM |
